Molecular target: T1, Human CD137 ECD (human)
T1 construct: entry includes C-terminal His-tag and biotin acceptor peptide; also called human CD137 extracellular domain; 4-1BB
Test: Biacore SPR, vs parent H183/L072

T1 sequence (chain, as listed by the source limits assumed): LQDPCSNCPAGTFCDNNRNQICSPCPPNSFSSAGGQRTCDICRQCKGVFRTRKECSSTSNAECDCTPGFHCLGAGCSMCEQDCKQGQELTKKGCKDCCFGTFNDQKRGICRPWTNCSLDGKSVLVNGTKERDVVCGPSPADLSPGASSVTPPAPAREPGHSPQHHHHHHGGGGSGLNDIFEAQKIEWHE

| fold change of affinity [fold] | Binder |
| --- | --- |
| 0.8 | H183/L072 VL V51Q (antibody, name in Kabat numbering, V domains shown, Dual-Ig) VH: QVQLVESGGGLVQPGRSLRLSCAASGFTFSNAWMHWVRQAPGKGLEWVAQIKDKGNAYAAYYAPSVKGRFTISRDDSKNSIYLQMNSLKTEDTAVYYCHYVHYASASTVLPAFGVDAWGQGTTVTVSS VL: DIVMTQSPLSLPVTPGEPASISCQASQELVHMNRNTYLHWYQQKPGQAPRLLIYKQSNRFPGVPDRFSGSGSGTDFTLKISRVEAEDVGVYYCAQGTSVPFTFGQGTKLEIK |
| 1.4 | H183/L072 VL V51R (antibody, name in Kabat numbering, V domains shown, Dual-Ig) VH: QVQLVESGGGLVQPGRSLRLSCAASGFTFSNAWMHWVRQAPGKGLEWVAQIKDKGNAYAAYYAPSVKGRFTISRDDSKNSIYLQMNSLKTEDTAVYYCHYVHYASASTVLPAFGVDAWGQGTTVTVSS VL: DIVMTQSPLSLPVTPGEPASISCQASQELVHMNRNTYLHWYQQKPGQAPRLLIYKRSNRFPGVPDRFSGSGSGTDFTLKISRVEAEDVGVYYCAQGTSVPFTFGQGTKLEIK |
| 0.6 | H183/L072 VL V51S (antibody, name in Kabat numbering, V domains shown, Dual-Ig) VH: QVQLVESGGGLVQPGRSLRLSCAASGFTFSNAWMHWVRQAPGKGLEWVAQIKDKGNAYAAYYAPSVKGRFTISRDDSKNSIYLQMNSLKTEDTAVYYCHYVHYASASTVLPAFGVDAWGQGTTVTVSS VL: DIVMTQSPLSLPVTPGEPASISCQASQELVHMNRNTYLHWYQQKPGQAPRLLIYKSSNRFPGVPDRFSGSGSGTDFTLKISRVEAEDVGVYYCAQGTSVPFTFGQGTKLEIK |

More lines, now with the values behind:

| Binder | fold change of affinity [fold] |
| --- | --- |
| H183/L072 VL V51K (antibody, name in Kabat numbering, V domains shown, Dual-Ig) VH: QVQLVESGGGLVQPGRSLRLSCAASGFTFSNAWMHWVRQAPGKGLEWVAQIKDKGNAYAAYYAPSVKGRFTISRDDSKNSIYLQMNSLKTEDTAVYYCHYVHYASASTVLPAFGVDAWGQGTTVTVSS VL: DIVMTQSPLSLPVTPGEPASISCQASQELVHMNRNTYLHWYQQKPGQAPRLLIYKKSNRFPGVPDRFSGSGSGTDFTLKISRVEAEDVGVYYCAQGTSVPFTFGQGTKLEIK | 1.4 |
| H183/L072 VL V51M (antibody, name in Kabat numbering, V domains shown, Dual-Ig) VH: QVQLVESGGGLVQPGRSLRLSCAASGFTFSNAWMHWVRQAPGKGLEWVAQIKDKGNAYAAYYAPSVKGRFTISRDDSKNSIYLQMNSLKTEDTAVYYCHYVHYASASTVLPAFGVDAWGQGTTVTVSS VL: DIVMTQSPLSLPVTPGEPASISCQASQELVHMNRNTYLHWYQQKPGQAPRLLIYKMSNRFPGVPDRFSGSGSGTDFTLKISRVEAEDVGVYYCAQGTSVPFTFGQGTKLEIK | 1 |
| H183/L072 VL V51N (antibody, name in Kabat numbering, V domains shown, Dual-Ig) VH: QVQLVESGGGLVQPGRSLRLSCAASGFTFSNAWMHWVRQAPGKGLEWVAQIKDKGNAYAAYYAPSVKGRFTISRDDSKNSIYLQMNSLKTEDTAVYYCHYVHYASASTVLPAFGVDAWGQGTTVTVSS VL: DIVMTQSPLSLPVTPGEPASISCQASQELVHMNRNTYLHWYQQKPGQAPRLLIYKNSNRFPGVPDRFSGSGSGTDFTLKISRVEAEDVGVYYCAQGTSVPFTFGQGTKLEIK | 0.3 |
| H183/L072 VL V51L (antibody, name in Kabat numbering, V domains shown, Dual-Ig) VH: QVQLVESGGGLVQPGRSLRLSCAASGFTFSNAWMHWVRQAPGKGLEWVAQIKDKGNAYAAYYAPSVKGRFTISRDDSKNSIYLQMNSLKTEDTAVYYCHYVHYASASTVLPAFGVDAWGQGTTVTVSS VL: DIVMTQSPLSLPVTPGEPASISCQASQELVHMNRNTYLHWYQQKPGQAPRLLIYKLSNRFPGVPDRFSGSGSGTDFTLKISRVEAEDVGVYYCAQGTSVPFTFGQGTKLEIK | 1.7 |
| H183/L072 VL V51P (antibody, name in Kabat numbering, V domains shown, Dual-Ig) VH: QVQLVESGGGLVQPGRSLRLSCAASGFTFSNAWMHWVRQAPGKGLEWVAQIKDKGNAYAAYYAPSVKGRFTISRDDSKNSIYLQMNSLKTEDTAVYYCHYVHYASASTVLPAFGVDAWGQGTTVTVSS VL: DIVMTQSPLSLPVTPGEPASISCQASQELVHMNRNTYLHWYQQKPGQAPRLLIYKPSNRFPGVPDRFSGSGSGTDFTLKISRVEAEDVGVYYCAQGTSVPFTFGQGTKLEIK | 0 |
